The results in this text go back to paper PMC5526873, “Tonoplast-localized nitrate uptake transporters involved in vacuolar nitrate efflux and reallocation in Arabidopsis” (Scientific Reports, 2017).

In one data set the target is T1, CHL1 (Arabidopsis thaliana, UniProt Q05085).
T1 construct: gene NPF6.3; cRNA-injected Xenopus laevis oocytes, positive control
T1 sequence (Q05085 1-590): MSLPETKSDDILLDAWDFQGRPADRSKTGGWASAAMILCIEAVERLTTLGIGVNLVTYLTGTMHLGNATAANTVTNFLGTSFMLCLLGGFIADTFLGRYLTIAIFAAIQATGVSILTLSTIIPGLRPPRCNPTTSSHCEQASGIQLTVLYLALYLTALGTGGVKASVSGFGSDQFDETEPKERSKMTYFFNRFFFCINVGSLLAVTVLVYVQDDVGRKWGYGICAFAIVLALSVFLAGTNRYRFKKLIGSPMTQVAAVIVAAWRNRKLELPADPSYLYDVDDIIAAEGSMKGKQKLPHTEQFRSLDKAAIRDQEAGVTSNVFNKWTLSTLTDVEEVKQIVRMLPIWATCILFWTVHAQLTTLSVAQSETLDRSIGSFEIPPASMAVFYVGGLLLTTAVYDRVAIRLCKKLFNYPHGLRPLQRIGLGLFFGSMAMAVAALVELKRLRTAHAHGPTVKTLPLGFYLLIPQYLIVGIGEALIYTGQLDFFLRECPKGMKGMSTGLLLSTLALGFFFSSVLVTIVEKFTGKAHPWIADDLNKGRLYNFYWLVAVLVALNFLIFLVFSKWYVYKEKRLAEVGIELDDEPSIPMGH
The experiment in a line: […]-nitrate uptake in cRNA-injected Xenopus oocytes, mass spectrometry. The data set is classed as cell-based. Conditions: pH 5.5, 0.25 mM 15N-nitrate, 12 h; positive control; labelled compound (15N).

Substrate in data set [1]: O=[N+]([O-])O
Kind of data set: cells, lysate or membranes. The conditions noted are these: pH 5.5, 1.5 h, 0.25-30 mM, labelled compound (15N). The data set is classed as cell-based, Arabidopsis thaliana.

For the molecule `O=[N+]([O-])O` [nitrate], the “15N-nitrate uptake in cRNA-injected Xenopus oocytes, mass spectrometry” value at CHL1 is listed as “CHL1-injected oocytes still showed high uptake activity”.

B1: NPF5.16 (Arabidopsis thaliana) (protein)
chain: MAIAEEEAALIEDSVSDSVDHRGLPAGKSSTGGWRSAWYIIGVEVGERFAYFGIGSNLITYLTGPLGQSTATAAVNVNTWSGTASILPVLGAFIADAYLGRYRTIVVASLIYILGLGLLTLSSILILMGLSEQRQHNRNASAKPFFWVNILFFCSLYLVAIGQGGHKPCVQAFGADQFDVGDPKERISRGSFFNWWFLSLSAGITLSIIVVVYVQDNVNWALGFGIPCLFMVMALALFLFGRKTYRYPRGDREGKNNAFARIGRVFLVAFKNRKLKLTHSGQLEVGSYKKCKGQLEFLAKALLPGEGGVEPCSSRDVEDAMALVRLIPIWITSVVSTIPYAQYATFFTKQGVTVDRKILPGFEIPPASFQALIGLSIFISVPTYERVFLPLARLITKKPSGITMLQRIGAGMVLSSLNMVVAALVEMKRLETAKEHGLVDRPDATIPMSIWWFVPQYLLLGMIDVFSLVGTQEFFYDQVPTELRSIGLALSLSAMGLASFLSGFLITVINWATGKNGGDSWFNTNLNRAHVDYFYWLLAAFTAIGFLAFLLLSRLYVYRRVDQV
notes: cDNA in oocyte vector pOO2, cRNA-injected Xenopus laevis oocytes; EYFP fusion used for localization
The Km is the substrate concentration at which the rate is half of its maximum. As for B1, the Km in data set [1] stood at 2910 µM.

B2: NPF5.11 (Arabidopsis thaliana) (protein)
chain: MAITYSSADELGNTTEGFLEIRENTSGGWKSARLIIVVQMAERFAYFGIASNLIMYLTGPLGESTAAAAANVNAWTGTVAFLPLLGGFLADSYLGRFRTIIISSSLYILGLGLLSFSTMIPSHQSKDSNQLQETIFFFSLYLVAIGQGGYNPCIKVFGADQFDGNDHKEARDKSSFFNWLMFGNCISILTTRLVSTYIQENLSWSLGFGIPSVSMLLSLFLFLLGTTSYRFSTERVGKKNPFARISRVFMEALKNRRQPDLDIANANANETLLLLAHQSSKQFRFLDRAAISCELAEIEEAKAVLRLIPIWITSVVYTIVHAQSPTFFTKQGATMDRSISPGLLVPAATLQSFINLSVVVFIPIYDRLLVPFARSFTQNSSGITTLQRIGTGIFLSILAMVLAALVETKRLQAARDELSIPMSVWWLIPQYVIFGVSDMFTMVGLQEFFYGQVPSELRSVGMALNLSIYGAGNYLSSFMISVIDKITNQYGQRSWFDNDLDQAHLDYFYWLLACLGFIGFAFYLWFAKSYVYSRSNTF
notes: as for B1
Turning to B2, the Michaelis-Menten constant (Km) in data set [1] is 2570 µM.

B3: NPF5.12 (Arabidopsis thaliana) (protein)
chain: MSTSIGDNETGAIVSNENVEFSVDFRGNPSIRSSSGAWKSSGFTMCAEVAEKFAYFGIASNLITYFTEALGESTAVAASNVNLWLGTAAFLPLIWGSIADSFLGRFRTILLTSSFYIMGLGLLTFSATIPSLCNDQETRESCVSQVKVIIFFCALYLIALGEGGFKVCLRAFGADQFDEQDPNESKAKSSYFNWLYFAISIGILTTRLVTNYVQENLSWALGYAIPCLSMMLALFLFLLGIKTYRFSTGGEGRQGKKHDNPFVRIGRVFVAAARNRRQTPSDTCLLLPNESTKKFRFLDRAVISCDSYEVEEAKAVLSLIPIWLCSLVFGIVFAQSPTFFTKQGSTMDRSISSTLQVPAATLQCFISLAILVFIPIYDRLFVPIARSITRKPAGITTLQRISTGIFLSIISMVIAALVEMKRLKTARDHGLVDSPKATVPMSVCWLIPQYILFGVSDVFTMVGLQEFFYGEVPPQLRSMGLALYLSIIGIGNFLSSFMVSVIEEATSQSGQVSWFSNNLNQAHLDYFYWLLACLSSLAFIFTVYFAKSYLYNSPK
notes: as for B1
Turning to B3, the Km in data set [1] was determined as 4840 µM.
